To fix the notation:
B1: HDV Ribozyme (parent)
chain: GGCCGGCAUGGUCCCAGCCUCCUCGCUGGCGCCGGCUGGGCAACAUUCCGAGGGGACCGUCCCCUCGGUAAUGGCGAAUGGGACCCA

In the data set the parent is B1. The data set can be described thus: self-cleavage, relative activity (ratio to wild type); higher = more cleavage; co-transcriptional.
For GUCCGGCAUGGUCCCAGCCUUCUCGCUGGCGCCGGCUGGGCAACAUUCCGAGGGGACCGUCCCCUCGGUAAUGGCGAAUGGGACCCA [G2U C21U], the self-cleavage amounted to 0.0542.

Regarding GGCCGGCAGGGUCCCAGCCUCCUCGCUGGCGCCGGCUGGGCAACAUGCCGAGGGGACCGUCCCCUCGGUAAUGGCGAAUGGGACCCA [U9G U47G], the self-cleavage was determined as 1.21.

As for GGCCGGCAUGGUCCCAGCCUCCUCGCUGGCGCCGGCUGGGCAACAUUCCAAGGGGACCGUCCCCUCGGUAAUGGCGAAUGGGACCGA [G50A C86G], the self-cleavage was determined as 0.884.

As for GGCCGGCAUGGUCCCAGCCUCCUCGCUGGCGCCGGCUGGGCAACAUUCCGAGGGGACCGUACCCUCGGUAAUGGCGAAUGCGACCCA [C61A G81C], the self-cleavage was 0.287.

With GGCCGGCAUUGUCCCAGCCUCCUCGCUGGCGCCGGCUGGACAACAUUCCGAGGGGACCGUCCCCUCGGUAAUGGCGAAUGGGACCCA [G10U G40A], the self-cleavage amounted to 0.745.

In the case of GGCCGGUAUGGUCCCAGCCUCCUCGCUGGCGCCGGCUGGGCAACAUUCCGAGGGGGCCGUCCCCUCGGUAAUGGCGAAUGGGACCCA [C7U A56G], the self-cleavage came out at 0.997.

For the variant GGUCGGCAUGGUCCCAGCCUCCUCGCUGGCGCCGGCUGGGCAACCUUCCGAGGGGACCGUCCCCUCGGUAAUGGCGAAUGGGACCCA [C3U A45C], the self-cleavage stood at 0.43.

Regarding GGCCGGCAUGGACCCAGCCUCCUCGCUGGCGCCGGCUGGGCGACAUUCCGAGGGGACCGUCCCCUCGGUAAUGGCGAAUGGGACCCA [U12A A42G], the self-cleavage was 0.256.

In the case of GGCCGGCAUGGUCCCAGCCUCCUCGCUGGCGCCGGCCGGGCAACAUUCCGAGGGAACCGUCCCCUCGGUAAUGGCGAAUGGGACCCA [U37C G55A], the self-cleavage was determined as 1.

GACCGGCAUGGUCCCAGCCUCCCCGCUGGCGCCGGCUGGGCAACAUUCCGAGGGGACCGUCCCCUCGGUAAUGGCGAAUGGGACCCA [G2A U23C]: the self-cleavage is 0.0511.

Turning to GGCCGGGAUGAUCCCAGCCUCCUCGCUGGCGCCGGCUGGGCAACAUUCCGAGGGGACCGUCCCCUCGGUAAUGGCGAAUGGGACCCA [C7G G11A], the self-cleavage was found to be 0.0346.

Turning to GGCCGGCAUGGUCCCAGCCUCCUCGCUGGCCCCGGCUGGGCAACAUUCCGCGGGGACCGUCCCCUCGGUAAUGGCGAAUGGGACCCA [G31C A51C], the self-cleavage amounted to 0.475.

Regarding GGCCGGCAUUGUCCCAGCCUCCUCGCUGGCGCCGGCUGGGCAACAUUCCGAGGGGACCGUCCCCUCGGUGAUGGCGAAUGGGACCCA [G10U A70G], the self-cleavage was 0.858.

On to GGCCGGCAUGGUCCCAGCCUCCUCGCUGGCGCCGGCUGGGCUACAUUCCGAGGGGACCGUCCCCUCAGUAAUGGCGAAUGGGACCCA [A42U G67A], for which the self-cleavage was 0.47.

As for GGCCGGCAUGGUCCCAGCCUCCUCGCUGGCGCCGCCUGGGCAACAUUCCGAGGGGACCGUCCCCUCGGUAAUGGCGAAUAGGACCCA [G35C G80A], the self-cleavage amounted to 0.212.

Consider GGCCGGCAUGGUCCCAGCCUCCUCGCUGGCGCCGGCUGGGCAACAUUCCUUGGGGACCGUCCCCUCGGUAAUGGCGAAUGGGACCCA [G50U A51U], for which the self-cleavage turned out to be 1.05.

Consider GGCGGGCAUGGUCCCAGCCUCCUCGCUGGCCCCGGCUGGGCAACAUUCCGAGGGGACCGUCCCCUCGGUAAUGGCGAAUGGGACCCA [C4G G31C], for which the self-cleavage is 0.108.

Take CGCCGGCAUGGUCCCAGCCUCCUCGCUGGCGCCGGCUGGGCGACAUUCCGAGGGGACCGUCCCCUCGGUAAUGGCGAAUGGGACCCA [G1C A42G]: the self-cleavage worked out at 0.

Turning to GGCCGGCAUGGUCCCAACCUCCUCGCUGGCGCCGGCCGGGCAACAUUCCGAGGGGACCGUCCCCUCGGUAAUGGCGAAUGGGACCCA [G17A U37C], the self-cleavage is 1.1.

Regarding GGCCGGCAUGGUCCCAGCCUCCUCGCUGGCGCCGGCUGGGCAACAUUCCGAGGGGACCGUCCCCUCGGUAAUGGCGACUGGGACCGA [A78C C86G], the self-cleavage was 0.14.

As for GGCCGGCAUGGUCCCAGCCUCCUCGCUGGCGCCGGCUGGGCAACAUUCCGAGGGGACCGUCCCCUCGGUAUAGGCGAAUGGGACCCA [A71U U72A], the self-cleavage stood at 0.969.

On to GGCCGGCAUGGUCCCAGCCUCCUCGCUGGCGCCGGCUGGGCAUCAUUCCGAGGGGACCGUCUCCUCGGUAAUGGCGAAUGGGACCCA [A43U C62U], for which the self-cleavage worked out at 0.394.

As for GGACGGCAUGGUCCCAGCCUCCUCGCUGGCGCCGGCUGGGCAACAUUCCGAGGGGACCGUCCCCUCGGUAAUGGCGAAUGGGACCCC [C3A A87C], the self-cleavage is 0.515.

As to GGCCGGCAUGGUCCCAGCCUCCUCGCUGGCGCCGGCUGGGCAACAUUCCGAGGGGAGCGUCCCCUCCGUAAUGGCGAAUGGGACCCA [C57G G67C], the self-cleavage was 0.923.

On to GGCCGGCAUGGUCCCAGCCUCCUCGCUGGCGCCGGCUGGGCAACAUUCCGAGGGGACCGUCCCCUCGGUUAUGGCAAAUGGGACCCA [A70U G76A], for which the self-cleavage is 1.02.

With GGCCGGCAUGGUCCCAGCCUCCUCGCUGGCGCCGGCUGGGCAACAUUCCGAGGGGACCGUCCCCUCUGUAAUGACGAAUGGGACCCA [G67U G74A], the self-cleavage was 0.379.

Take GGCCGGCCUGGUCCCAGCCUCCUCGCUGGCGCCGGCUGGGCCACAUUCCGAGGGGACCGUCCCCUCGGUAAUGGCGAAUGGGACCCA [A8C A42C]: the self-cleavage came out at 0.201.

GGCCGGCAUGGUCCCAGCCUCCUCGCUGGCGCCGGCUGGGCAACAUUCCGAGGGCACCGUCGCCUCGGUAAUGGCGAAUGGGACCCA [G55C C62G]: the self-cleavage was 1.06.

As to GGCCGGCUUGGUCCCAGCCUCCUCGCUGGCGCCCGCUGGGCAACAUUCCGAGGGGACCGUCCCCUCGGUAAUGGCGAAUGGGACCCA [A8U G34C], the self-cleavage was 0.

Take GGCCGGCAUGGUCCCAGCCUCCUCGCUGGCGCCGGCUGGGCAACAUUCCGAGGGGACCGUCCCCUCGGUAAUCGCGAAUGGGACCCG [G73C A87G]: the self-cleavage turned out to be 0.454.

GGCCGCCAUGGUCCCAGCAUCCUCGCUGGCGCCGGCUGGGCAACAUUCCGAGGGGACCGUCCCCUCGGUAAUGGCGAAUGGGACCCA [G6C C19A]: the self-cleavage worked out at 0.

As for GGCCGGCAUGGUCCCAGCCACCUCGCUGGCGCCGGCUGGGCAACAUUCCGAGUGGACCGUCCCCUCGGUAAUGGCGAAUGGGACCCA [U20A G53U], the self-cleavage was found to be 0.0959.

The values above are taken from the RNAGym collection of RNA variant scans (doi:10.7554/elife.80360).
